Among the data in a protein production outcome set (Wang et al. 2014) are protein production values, retold here.

A short description of this series: label from the status in PepcDB records.
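Note: failed if final PepcDB status was selected cloned or expressed and not failed if soluble or beyond.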

For the sequence “MEQRRVTDFFARRRPGPPRIAPPKLACRTPSPARPALRAPASATSGSRKRARPPAAPGRDQARPPARRRLRLSVDEVSSPSTPEAPDIPACPSPGQKIKKSTPAAGQPPHLTSAQDQDTISELASCLQRARELGARVRALKASAQDAGESCTPEAEGRPEEPCGEKAPAYQRFHALAQPGLPGLVLPYKYQVLAEMFRSMDTIVGMLHNRSETPTFAKVQRGVQDMMRRRFEERNVGQIKTVYPASYRFRQERSVPTFKDGTRRSDYQLTIEPLLEQEADGAAPQLTASRLLQRRQIFSQKLVEHVKEHHKAFLASLSPAMVVPEDQLTRWHPRFNVDEVPDIEPAALPQPPATEKLTTAQEVLARARNLISPRMEKALSQLALRSAAPSSPGSPRPALPATPPATPPAASPSALKGVSQDLLERIRAKEAQKQLAQMTRCPEQEQRLQRLERLPELARVLRSVFVSERKPALSMEVACARMVGSCCTIMSPGEMEKHLLLLSELLPDWLSLHRIRTDTYVKLDKAADLAHITARLAHQTRAEEGL”, the protein production entry is given as “failed”.

“MEQSLGSKQNLGSKQNQITKPHKLVLDNRKRTNLTGIEDVVEFDTTQIVLESSMGMLVIKGADLKITRLSIEKGEADIDGSVNSVIYSQIKNYGEKGKSVLKRMFS”: the protein production result is “failed”.

As for “MEQTDITSLIPIAITLIISLTTRNVVVGLFAGVLSGVAMLNGLFTTLGPFETFGVMVKSYISPQLTDSYNAGVIVLLVFIGGFVALMEKSGGGLAFAEKVTLWVKSKFQAQTSAWLGGIIIFFSDLGTPLIVGPVFRPLFDKLKISRQKLAFIIDSTSSPVAILIPFIGWGVYIMGLIQKEFTALNVTDITDWDAFLGAIPYQFYAILAIAIVPLVALKKLDFGPMAKAEAIASKGELHASSDISKEIFTHKNAKASFVWAPLLVMGAVLVFMLAPLGFPFEKVSGSVFRSALSTAYFFAAFTLIILMAMNKVRSLSDGISVYMKGMGNMMQVAIILILAWTLSSVGKELGAAAYIAEQAQNGFPYWLVPAVSFLLAAIISFATGSSWGTFAIMMHLVIPTAITIDAPMFVCIGAVLSGGLFGDHCSPISETTILSSTGAGCDQFEHFKTQLPYALLNGGIALVSFLIAGIFDNPLIFILALIAQVTLVVTLAKLTPENMFNKSKLVAGNQLG”, the protein production entry is on record as “failed”.

Consider “MERHQHLLSEYQQILTLSEQMLVLATEGNWDALVDLEMTYLKAVESTANITISSCSSLMLQDLLREKLRAILDNEIEIKRLLQLRLDRLSDLVGQSTKQQAVNNTYGQFPDHALL”, for which the protein production result is “not failed”.

“MERISLSFVGDVMLAGSATDTLQRYGYSYPFSATAAELRRSDLVVGNLEAPLTDGGREFRAKRFRFKASPVAAAALKRAGFSVMTLANNHMMDFGADGLSDTIHHLNRNGIAFAGAGPSIADARREASVTVRGQTVAFLAYSLTQPIEFFATEGRPGTAPGYAGHYLADIRRVRSSADHVVVSFHWGQERAALPSPYQIETAHRAIDAGADIVIGHHPHVLQGIEIYRGSPIFYSLGNFAFGSRSPSADRSIIARVTLGEGPPIVEVIPLNVLFREVRFQPAILTGRKAADVVDRLNRLSAPFSTVITSTAGSHLVAPAEANARLARRQLEHHHHHH”: the protein production entry was “failed”.

With “MERKFMSLQPSISVSEMEPNGTFSNNNSRNCTIENFKREFFPIVYLIIFFWGVLGNGLSIYVFLQPYKKSTSVNVFMLNLAISDLLFISTLPFRADYYLRGSNWIFGDLACRIMSYSLYVNMYSSIYFLTVLSVVRFLAMVHPFRLLHVTSIRSAWILCGIIWILIMASSIMLLDSGSEQNGSVTSCLELNLYKIAKLQTMNYIALVVGCLLPFFTLSICYLLIIRVLLKVEVPESGLRVSHRKALTTIIITLIIFFLCFLPYHTLRTVHLTTWKVGLCKDRLHKALVITLALAAANACFNPLLYYFAGENFKDRLKSALRKGHPQKAKTKCVFPVSVWLRKETRV”, the protein production result is given as “failed”.

On to “MERKGIFIKVFSYTIIVLLLLVGVTATLFAQQFVSYFRAMEAQQTVKSYQPLVELIQNSDRLDMQEVAGLFHYNNQSFEFYIEDKEGSVLYATPNADTSNSVRPDFLYVVHRDDNISIVAQSKAGVGLLYQGLTIRGIVMIAIMVVFSLLCAYIFARQMTTPIKALADSANKMANLKEVPPPLERKDELGALAHDMHSMYIRLKETIARLEDEIAREHELEETQRYFFAAASHELKTPIAAVSVLLEGMLENIGDYKDHSKYLRECIKMMDRQGKTISEILELVSLNDGRIVPIAEPLDIGRTVAELLPDFQTLAEANNQRFVTDIPAGQIVLSDPKLIQKALSNVILNAVQNTPQGGEVRIWSEPGAEKYRLSVLNMGVHIDDTALSKLFIPFYRIDQARSRKSGRSGLGLAIVQKTLDAMSLQYALENTSDGVLFWLDLPPTSTL”, for which the protein production result is “failed”.

For “MERKLSNGCVASKSEELAKQQLPPPPDQDQEQPALQPPKVNGLKENQAVKHNNNNNTNNNNNKNGLVNGNAKKDELKAAEDHDTQSKEDDDPKEKVVKPKLNGNLIKNPIDKTAETQDKIAQPAPEPPLPKRPKLETPTSNEVTKANGQLVQQQLESRESEEEPQHVDE”, the protein production entry is listed as “failed”.

Take “MERLISHPPLMIVSDLDHTMVDHQDHENLSLLRFNSLWEYAYRRDSLLVFSTARSPVLYKELRKEKPLLTPDIIITSIGTEIAFGNSMVPDHAWVESLNSCKWNREIVLEETSKFPELTLQPKTEQRLHKVSFYIDEGKGEALTKELSQLLEKRGLDVKIIYSWGKNVDVIPRGAGKGEALEYLLKKLQAEGIFPVNTLACGDSEHDAELFSIPDVHGVMVSNSQEELLKWRSENALNNLKVIHSTERCADGIIQAIGHFNLGPDLSPRDVSEFLDRKMDNVNPGHEVVRFYLFYERLRRGEIKNYETYIASFKDSCAEKSLRDTIDELKKCYGDKRGKKFWVWVDQVLVTDTIPGKWIVKFDKWEQCEDESQCCKTTVEFTSKGGDLVWEKVKQIWSEESKVKDDNSSWIL”: the protein production entry is on record as “not failed”.

Take “MERLTRWLLVMMAMLLAASGLVWFYNSNHLPVKQVSLKGNLVYSDKKTLGSLAKEYIHGNILRTDINGAQEAYRRYPWIASVMVRRRFPDTVEVVLTERKPVARWGDHALVDGEGNVFEARLDRPGMPVFRGAEGTSAEMLRRYDEFSTVLAKQGLGIKEMTYTARSAWIVVLDNGITVRLGRENEMKRLRLFTEAWQHLLRKNKNRLSYVDMRYKDGFSVRYASDGLPEKESEE”: the protein production result is on record as “failed”.

Take “MERNANYALVGAISLALFMGLVIFAVWLAKLSFNRDYDVYDILFVGPVRGLSQGGEVHFNGIKVGEVTRIELDKTDTNRVIARVRVTSDVPIKVDSYATLEPQGITGVNYVQITAGAPNKELLKDTVKTGKVPVIRTQRSALSDLLEGGGTVLTRTIEALDRVNRVLSDRNIKSFGATLTNVQAVTQEMRDRKEILADAQKALQSIDQTAQSITELSNSANTLVDGDAKRTLKELGDAAAELRATAKDARGMVTKLEGPASDFATTGLPQLSSAIVTLQSAAESLDRLVGEVEQNPRGVVGKAPAKEVEVKPLEHHHHHH”: the protein production entry was “not failed”.

Turning to “MERRTILVTGASGFVGGALCRQLATLGSFAIRAASRDLGGASVAGIQAVTVADLSATTDWARALSGVDLVVHAAARVHVMKETASDSLAEFRRVNVDGTLNLARQAAAAGVRRFIFISSIKVNGESSQPGQPLRADDSPAPQDAYGVSKHEAEQGLRQLAAATGMEVVVIRPVLVYGPGVKANFHSMMRWLQRGVPLPFGAVCNRRSLVSLANLVDLVVTCIDHPRAANQTFLASDGDDVSLTQLLRALGLALGRPARLLPVPAGLLRGAVLLIGRRDLAQRLFGTLQVDIEKNRQLLGWYPPCTLEQGLNMTARSFLGARRP”, the protein production result is given as “failed”.

As to “MERSAIQIPAGRIDDAVAKVDGLVGELMQNTGIPGMAVAIVHGGKTLYAKGFGVRDVGKGGGPDNKVDADTVFQLASVSKSVGATVVAHAVTDNVVTWDTPVVSKLPWFALRDPYVTGQVTIADLYSHRSGLPDHAGDLLEDLGYDRRQVLQRLKYLPLAPFRISYAYTNFGVTAAAEAVAAAAGQSWEDLSDEVLYRPLGMGSTSSRFTDFLARPNHAVNHVKVADRWEARYQRDPDAQSPAGGVSSSLNDMTHWLAMVLADGVYNGRRITSPEALLLVYTPQVISRHPVSPRARASFYGYGFNVGVTSSGRTEYSHSGAFGLGAAANFVVLPSEDLAIIALTNAGPIGVPETLTAEFMDLVQYGQVREDWAALYKKAFAPLNELAGSLVGKQSPANPAPSRPLNDYVGVYANDYWGPATVTYHDGQLRLSLGPKNQTFDLTHWDGDTFTFTLSTENALPGSISKATFAGDTLNLEYYDADKLGTFTRLEHHHHHH”, the protein production entry is on record as “failed”.

For “MERVSERSLSENLRRSDREDGKIIEWEEFDHELTRLWSLSSAMKLATERKQILQPKLESLIQVSTESLRRTNELEEMRQRLEARKLLVDKTSVACKVTEQDVKKKEENLSTEVRSLLVGGTTLSIAKSKLQESNCQLEGESGYAHLKIVTNKLRKRQQFMVSQVSFIYPLKIEAGPSQDQELESFPGGSRLGTKPLSQGSVRILGLPFSMAPFTKMSFFTDKKEVQKSATALGYVAHAVSLIAPYLRVPIRYPLCLGGSKTYIRDYAPYIEPSPSDMSPITTLSQNINFVEFPLFLDGQDTTRAAYAVFLLNKNIEQLLNFVGENSLGPRQVLANLKELIRIIQSPDYIDYL”, the protein production result is listed as “failed”.

For “MESADSGRSDPVKGDDPGPSFVSSPPATPSRYESQKRRDWNTFLQYLKNHKPPLALSRCSGAHVIEFLKYLDQFGKTKVHVAACPYFGHQQPPSPCSCPLKQAWGSLDALIGRLRAAYEENGGRPDSNPFAARAVRIYLREVRESQAKARGIPYEKKKRKRPPTVTTVRVDVASSRQSDGDPCNVGAPSVAEAVPP”, the protein production entry was “failed”.

Turning to “MESDIEILSEADASMRKLRIFGIDDREDENGRRRIKDVEVYVPIVCGSIAFYLGKKATEYRTHKWTVYVRGATNEDLGVVIKRVIFHLHPSFNNPTRVVDAPPFALSECGWGEFKIDITVFFHTDVCEKKLELSHVLKLNPENAYGPIPKSIKIPVVAESYNEVVFPDPFESFVARVHNHPAIQISNIPDGLNLPPPGAFLF”, the protein production result is recorded as “not failed”.

Consider “MESFHPLSLLKPSIRGWCIRGRVVRTFLVSLVPSSKVMGLILAEEHGMTIEATVGYKMSDHYKDFINEGEWVTITNFGVVENSGSVRATTHSFKIGFFVDIVVRLTSPLPAIPHYRLASFSSIIDDEIDKSVLVDLVGAIYDVGELINTRPKQNNVDDLTLIFKISDNENRVLECLATKKEALDFDHNYRRYGGGVIVAVLGWWKIDRYFDGPKNVRVCTAGTISTVFPDPDIPESNEIHEI”, for which the protein production result was “failed”.

For the sequence “MESLSIIFRWFVGLRSVGSSLGRKPDQTEETTLTTKLDIAPANDRELVVARIIDAPRENVYRCWTDTRLLTQWFSPKPWTTPRAEMDMRTGGSSLVIMADPDGNEFPNPGVFLEVIPGKKIIFTDAYTQAWEPSEKPFMTGVLTFEDEGEGRTRYIARVRHWSVADRERHEAMGFHVGWGQCTDQLEDLARTL”, the protein production entry is “failed”.

For “MESLTLQPIELISGEVNLPGSKSVSNRALLLAALASGTTRLTNLLDSDDIRHMLNALTKLGVNYRLSADKTTCEVEGLGQAFHTTQPLELFLGNAGTAMRPLAAALCLGQGDYVLTGEPRMKERPIGHLVDALRQAGAQIEYLEQENFPPLRIQGTGLQAGTVTIDGSISSQFLTAFLMSAPLAQGKVTIKIVGELVSKPYIDITLHIMEQFGVQVINHDYQEFVIPAGQSYVSPGQFLVEGDASSASYFLAAAAIKGGEVKVTGIGKNSIQGDIQFADALEKMGAQIEWGDDYVIARRGELNAVDLDFNHIPDAAMTIATTALFAKGTTAIRNVYNWRVKETDRLAAMATELRKVGATVEEGEDFIVITPPTKLIHAAIDTYDDHRMAMCFSLVALSDTPVTINDPKCTSKTFPDYFDKFAQLSR”, the protein production entry is given as “not failed”.
